Laboratory results reported in patent publication US20110319338A1, “PEPTIDES THAT BIND EUKARYOTIC TRANSLATION INITIATION FACTOR 4E” (The Board of Regents of the University of Texas System, priority 2008, published 2011).
Square brackets hold non-standard residues; d marks the D form. Ends that are not written are not given here.

System: ES-2-GFP cells
Test: Mouse i.p. xenograft model of epithelial ovarian cancer
Assay type: in vivo
Method: FIGS. 4A-4C. Anti-tumor activity of [DLys6]GnRH-4EBP1-WT peptide in a xenograft model of EOC. Female nude mice were inoculated i.p. with one million ES-2-GFP cells. At Day 9 after tumor cell inoculation, one group of mice (n=5) was sacrificed (pre-treatment). At Day 9, other groups of mice were administered by i.p. injection with saline (n=11), [DLys6]GnRH (n=11) or [DLys6]GnRH-4EBP1-WT (n=11) at a dose of 3.0 nanomoles per gram body weight Saline or peptide was administered every 2 days thereafter for 11 days (6 doses in total), and mice were sacrificed on Day 20. (FIG. 4A) Visualization under a fluorescence stereoscope of i.p. tumors in pre-treatment mice (at Day 9) including implants on the omentum (ome), and in mice treated with saline, with agonist alone and with [DLys6]GnRH-4EBP1-WT (at Day 20). (FIG. 4B) Hematoxylin eosin-stained sections of tissues of pre-treatment mice (at Day 9) and of saline- and peptide-treated mice (at Day 20). Tumors attached to the omentum extensively involved the pancreas in saline- and agonist-treated mice. Also shown are tumors attached to the broad ligament and mesentery. Bar, 200 micrometers. (FIG. 4C) Quantification of i.p. tumor burden in pre-treatment and treated mice that completed the regimen, expressed as the average percent of area of fluorescence within the abdominal cavity in captured images, and volume of ascites. Median values of tumor burden and ascites volume for each group and statistical significance of differences between groups are indicated.
Animal Studies. Animal studies were approved by the Institutional Animal Care and Use Committee. The ES-2 cell line stably expressing enhanced green fluorescent protein (ES-2-GFP) has been described in previous work (Hara et al., 2007). Four-week-old female nude mice were inoculated i.p. at one site in the lower abdomen with 10^6 ES-2-GFP cells. At Day 9 after tumor cell inoculation, one group of mice (n=5) were killed by CO2 asphyxiation. At Day 9, other groups of mice were administered by i.p. injection with 200 microliters of phosphate-buffered saline (PBS) (n=11), [DLys6]GnRH (n=11) or [DLys6]GnRH-4EBP1-WT peptide (n=11) at a dose of 3.0 nanomoles per gram body weight. Peptides were suspended in PBS and administered at a volume of 200 microliters. PBS or peptide was administered every 2 days thereafter for 11 days (6 doses in total). Mice were sacrificed on Day 20, and ascites harvested. Tumors were visualized under a Leica MZML III fluorescence stereomicroscope equipped with mercury lamp power supply and green fluorescent protein (GFP) filter set. Tumor burden was quantified by measuring areas of fluorescence signals within the abdominal cavity in captured images by using Image Pro Plus 5.0 software (Media Cybernetics, Bethesda, Md.). Slides of paraffin-embedded tissues collected from mice were stained with hematoxylin-eosin. TUNEL-staining of tissue sections was performed using the in situ cell death detection kit (Roche).
To determine the efficacy of [DLys6]GnRH-4EBP1-WT peptide in vivo, a mouse i.p. xenograft model was used that was established from an ES-2 cell line stably expressing GFP (Hara et al., 2007). This model mimics the typical behavior of epithelial ovarian cancer, including i.p. dissemination and ascites formation. This example comprised three treatment groups of mice i) saline, ii) [DLys6]GnRH agonist, and iii) [DLys6]GnRH-4EBP1-WT, where sample size of each group was n=11. The first dose of peptide or saline was administered i.p. to mice at Day 9 after tumor cell inoculation. At Day 9, no ascites had yet formed but tumors had established on the omentum, broad ligament and mesentery which are common sites of ovarian cancer cell attachment (FIGS. 4A,B). A schedule in which peptide was administered every 2 days was chosen, based on the studies of peptide stability in serum (FIG. 6).
Based on studies of other agonist conjugates in xenograft models (19-21), a peptide dose of 3.0 nanomoles per gram body weight was used. […]

[1] = drop-out mice, individual animals

Q: Which Ascites volume [1] does the source give for “[DLys6]GnRH: GnRH agonist with a D-amino acid substitution at position 6; GnRH-RI-targeting moiety (QHWSY[dK]LRPG; not fully specified (residue 1, C-terminus); ends and bridges not checked)” here?
A: The Ascites volume was 8.9 mL.

Q: And the “Percent i.p. tumor burden” value [1]?
A: The value was 40.9%.

Q: What about the “i.p. tumor burden, percent of the abdominal cavity (mean)” value (mice that completed regimen, Day 20, 3.0 nanomoles per gram body weight i.p. every 2 days, 6 doses) of the same substance?
A: The value was 56.4%.

Q: What about the “Drop-outs (euthanized prior to completion due to morbidity related to ascites accumulation)” value (mouse, in vivo) of the same substance?
A: Its value is 1.

Q: What about the “Mice euthanized, day” value (mouse, in vivo) of the same substance?
A: Its value is “n = 1, day 16”.

Q: And the “day of death before completing treatment regimen” value (mouse, in vivo)?
A: Its value is 17 days.

Q: What about the “Deaths (died before completing treatment regimen)” value (of 11 mice per group) of the same substance?
A: Its value is 2.
